Data reported in patent US20240010714A1 (MBRACE THERAPEUTICS, published 2024).
Values belong to the binder of their own block, whether it stands above or below them.

Tests used:
Assay in all cases: alanine scan, high-throughput flow cytometry
[1] = target: T1, GRP78 alanine scan variant E329A (human, UniProt P11021 19-654)
T1 construct: Member of the GRP78 alanine scan library
Protocol: (§1) To characterize the binding properties of the antibodies described in Example 1 for GRP78, epitope mapping analysis was carried out by alanine scan mutagenesis. An alanine scan library of GRP78 was constructed. Each anti-GRP78 antibody was then screened for binding to each individual GRP78 variant, allowing identification of the target protein residues involved in antibody binding.
(§2) Binding of each test antibody to each GRP78 variant in the alanine scanning library was determined by high-throughput flow cytometry under high stringency conditions (e.g., increased pH, increased salinity, increased temperature and/or increased wash time). Also included in the experiment was a commercially-available monoclonal antibody, 1H11-1H7, which was verified to bind to WT GFR78 on cells and thus determined to be a suitable positive control under these conditions (Thermo Fisher Scientific, Waltham, MA). Antibody binding to each of the GRP78 variant as measured by the fluorescence signal (raw fluorescence data minus the background), was normalized to its binding to the wildtype (WT) GRP78. For each GRP78 variant, such normalized binding to the test antibodies was plotted relative to that to the control antibody.

[2] = target: T2, GRP78 alanine scan variant H265A (human, UniProt P11021 19-654)
T2 construct: Member of the GRP78 alanine scan library
Protocol: as §1, §2

[3] = target: T3, GRP78 alanine scan variant R261A (human, UniProt P11021 19-654)
T3 construct: Member of the GRP78 alanine scan library
Protocol: as §1, §2

[4] = target: T4, GRP78 alanine scan variant R279A (human, UniProt P11021 19-654)
T4 construct: Member of the GRP78 alanine scan library
Protocol: as §1, §2

T3 sequence (P11021 19-654 R261A limits assumed): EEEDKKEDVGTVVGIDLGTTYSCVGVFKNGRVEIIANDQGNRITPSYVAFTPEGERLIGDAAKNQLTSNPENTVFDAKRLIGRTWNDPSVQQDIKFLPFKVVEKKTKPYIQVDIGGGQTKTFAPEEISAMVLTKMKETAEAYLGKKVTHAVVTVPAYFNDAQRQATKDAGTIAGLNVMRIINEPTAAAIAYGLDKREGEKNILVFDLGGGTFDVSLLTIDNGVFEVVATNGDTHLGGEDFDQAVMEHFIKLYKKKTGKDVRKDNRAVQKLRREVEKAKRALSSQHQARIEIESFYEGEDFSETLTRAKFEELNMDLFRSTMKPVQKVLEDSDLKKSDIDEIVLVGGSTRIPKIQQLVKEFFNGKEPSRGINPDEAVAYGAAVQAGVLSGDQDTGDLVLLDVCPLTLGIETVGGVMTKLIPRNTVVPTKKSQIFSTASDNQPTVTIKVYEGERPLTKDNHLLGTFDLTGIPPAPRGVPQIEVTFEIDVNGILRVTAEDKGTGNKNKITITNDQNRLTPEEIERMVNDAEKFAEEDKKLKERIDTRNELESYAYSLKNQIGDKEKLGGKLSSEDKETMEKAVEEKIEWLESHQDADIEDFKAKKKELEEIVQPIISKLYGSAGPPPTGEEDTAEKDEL
T4 sequence (P11021 19-654 R279A limits assumed): as the sequence (P11021 19-654 R261A limits assumed) above, with A243R, R261A counted along it
T2 sequence (P11021 19-654 H265A limits assumed): as the sequence (P11021 19-654 R261A limits assumed) above, with A243R, H247A counted along it
T1 sequence (P11021 19-654 E329A limits assumed): as the sequence (P11021 19-654 R261A limits assumed) above, with A243R, E311A counted along it

binding normalized to wildtype (WT) GRP78 [1]: < 20%
binding normalized to wildtype (WT) GRP78 [2]: < 20%
binding normalized to wildtype (WT) GRP78 [3]: < 20%
B1: anti-GRP78 antibody clone B4 (antibody, IgG1, V domains shown)
VH: QVRLQESGPGLVKPSQTLSLTCTVSGGSISSGGYYWSWIRQHPGKGLEWIGYIYYSGSTYYNPSLESRVTISVDTSKNQFSLKLSSVTAADTAVYYCARYSSIDAFEIWGQGTMVTVSS
VL: SYVLTQPPSVSVAPGKTATITCGGDDIGSKSVHWYQQKPGQAPVLVVYDDGDRPSGIPERFSGSNSGNTATLAISRVEAGDEADYYCQVWDSSSDQYVFGSGTKLTVL
notes: Fully human mAb formatted as full-length IgG1; also called B4 mAb

binding normalized to wildtype (WT) GRP78 [4]: < 20%
binding normalized to wildtype (WT) GRP78 [3]: < 20%
B2: anti-GRP78 antibody clone F6 (antibody, IgG1, V domains shown)
VH: QVQLQQSGPGLVKPPQTLSLTCAISGDSVSSNSAAWNWIRQSPSRGLEWLGRTYYRSKWYNDYAVSVKSRITINPDTSKNQFSLQLNSVTPEDTAVYYCARDPYYYDSSGYYYFDAFDIWGQGTMVTVSS
VL: SYELTQPHSVSVAPGQTARITCGGDNIGSKSVHWYQQRPGQAPVLVVYDDSDRPSGIPERFSGSNSENTATLTISGVEAGDEADYYCQVWDSTSHHVVFGGGTKLTVL
notes: Fully human mAb formatted as full-length IgG1; also called F6 mAb; Anti-GRP78 (F6)
